These results are taken from the Immune Epitope Database (IEDB).

The term IC50 denotes the concentration at which inhibition is half-maximal.

Common to all, as to assay: IEDB peptide-MHC binding, purified MHC/competitive/radioactivity; ≥ and ≤ were set here for values at or beyond the usual limits of such assays
What all share (conditions): source organism: Homo sapiens

Experiment [1] has as its target HLA-A*03:01.
Experiment [2] deals with HLA-A*31:01.
In experiment [3] the target is HLA-A*11:01.
Experiment [4] concerns the target HLA-A*33:01.
In experiment [5] the target is HLA-A*30:01.
Experiment [6] addresses HLA-A*68:01.

As for KLGGGQYGE, the concentration for half-maximal inhibition (IC50) in experiment [1] worked out at 2.28 µM; in experiment [2] it was 9.87 µM; in experiment [3], 2.28 µM; in experiment [4], 63.6 µM; in experiment [5] it was 10.1 µM; in experiment [6], 4.21 µM.
EVYEGVWKK: the half-inhibitory concentration (IC50) in experiment [1] is 1.07 µM; in experiment [2] it was at least 70 µM; in experiment [3], 0.063 µM; in experiment [4] it was 0.06 µM; in experiment [5] it was at least 70 µM; in experiment [6], 0.01 µM.
